The source of these data is patent publication US20120252071A1 (ROCHE DIAGNOSTICS OPERATIONS, published 2012).

First the molecules themselves.
B1: T7 variant #26 [Cys723Ser, Ala702Val, Val795Ile] (enzyme)
chain: MNTINIAKNDFSDIELAAIPFNTLADHYGERLAREQLALEHESYEMGEARFRKMFERQLKAGEVADNAAAKPLITTLLPKMIARINDWFEEVKAKRGKRPTAFQFLQEIKPEAVAYITIKTTLACLTSADNTTVQAVASAIGRAIEDEARFGRIRDLEAKHFKKNVEEQLNKRVGHVYKKAFMQVVEADMLSKGLLGGEAWSSWHKEDSIHVGVRCIEMLIESTGMVSLHRQNAGVVGQDSETIELAPEYAEAIATRAGALAGISPMFQPCVVPPKPWTGITGGGYWANGRRPLALVRTHSKKALMRYEDVYMPEVYKAINIAQNTAWKINKKVLAVANVITKWKHCPVEDIPAIEREELPMKPEDIDMNPEALTAWKRAAAAVYRKDKARKSRRISLEFMLEQANKFANHKAIWFPYNMDWRGRVYAVSMFNPQGNDMTKGLLTLAKGKPIGKEGYYWLKIHGANCAGVDKVPFPERIKFIEENHENIMACAKSPLENTWWAEQDSPFCFLAFCFEYAGVQHHGLSYNCSLPLAFDGSCSGIQHFSAMLRDEVGGRAVNLLPSETVQDIYGIVAKKVNEILQADAINGTDNEVVTVTDENTGEISEKVKLGTKALAGQWLAYGVTRSVTKRSVMTLAYGSKEFGFRQQVLEDTIQPAIDSGKGLMFTQPNQAAGYMAKLIWESVSVTVVAAVEAMNWLKSVAKLLAAEVKDKKTGEILRKRSAVHWVTPDGFPVWQEYKKPIQTRLNLMFLGQFRLQPTINTNKDSEIDAHKQESGIAPNFVHSQDGSHLRKTIVWAHEKYGIESFALIHDSFGTIPADAANLFKAVRETMVDTYESCDVLADFYDQFADQLHESQLDKMPALPAKGNLNLRDILESDFAFA
notes: not shown: N-terminal His-tag
B2: T7 variant #32 [Cys723Ser, Val426Leu, Ala702Val, Val795Ile] (enzyme)
chain: MNTINIAKNDFSDIELAAIPFNTLADHYGERLAREQLALEHESYEMGEARFRKMFERQLKAGEVADNAAAKPLITTLLPKMIARINDWFEEVKAKRGKRPTAFQFLQEIKPEAVAYITIKTTLACLTSADNTTVQAVASAIGRAIEDEARFGRIRDLEAKHFKKNVEEQLNKRVGHVYKKAFMQVVEADMLSKGLLGGEAWSSWHKEDSIHVGVRCIEMLIESTGMVSLHRQNAGVVGQDSETIELAPEYAEAIATRAGALAGISPMFQPCVVPPKPWTGITGGGYWANGRRPLALVRTHSKKALMRYEDVYMPEVYKAINIAQNTAWKINKKVLAVANVITKWKHCPVEDIPAIEREELPMKPEDIDMNPEALTAWKRAAAAVYRKDKARKSRRISLEFMLEQANKFANHKAIWFPYNMDWRGRLYAVSMFNPQGNDMTKGLLTLAKGKPIGKEGYYWLKIHGANCAGVDKVPFPERIKFIEENHENIMACAKSPLENTWWAEQDSPFCFLAFCFEYAGVQHHGLSYNCSLPLAFDGSCSGIQHFSAMLRDEVGGRAVNLLPSETVQDIYGIVAKKVNEILQADAINGTDNEVVTVTDENTGEISEKVKLGTKALAGQWLAYGVTRSVTKRSVMTLAYGSKEFGFRQQVLEDTIQPAIDSGKGLMFTQPNQAAGYMAKLIWESVSVTVVAAVEAMNWLKSVAKLLAAEVKDKKTGEILRKRSAVHWVTPDGFPVWQEYKKPIQTRLNLMFLGQFRLQPTINTNKDSEIDAHKQESGIAPNFVHSQDGSHLRKTIVWAHEKYGIESFALIHDSFGTIPADAANLFKAVRETMVDTYESCDVLADFYDQFADQLHESQLDKMPALPAKGNLNLRDILESDFAFA
notes: not shown: N-terminal His-tag
B3: T7 variant #33 [Cys125Ser, Cys347Ser, Cys492Ser, Cys515Ser, Cys723Ser, Cys839Ser, Val426Leu, Ala702Val, Val795Ile] (enzyme)
chain: MNTINIAKNDFSDIELAAIPFNTLADHYGERLAREQLALEHESYEMGEARFRKMFERQLKAGEVADNAAAKPLITTLLPKMIARINDWFEEVKAKRGKRPTAFQFLQEIKPEAVAYITIKTTLASLTSADNTTVQAVASAIGRAIEDEARFGRIRDLEAKHFKKNVEEQLNKRVGHVYKKAFMQVVEADMLSKGLLGGEAWSSWHKEDSIHVGVRCIEMLIESTGMVSLHRQNAGVVGQDSETIELAPEYAEAIATRAGALAGISPMFQPCVVPPKPWTGITGGGYWANGRRPLALVRTHSKKALMRYEDVYMPEVYKAINIAQNTAWKINKKVLAVANVITKWKHSPVEDIPAIEREELPMKPEDIDMNPEALTAWKRAAAAVYRKDKARKSRRISLEFMLEQANKFANHKAIWFPYNMDWRGRLYAVSMFNPQGNDMTKGLLTLAKGKPIGKEGYYWLKIHGANCAGVDKVPFPERIKFIEENHENIMASAKSPLENTWWAEQDSPFCFLAFSFEYAGVQHHGLSYNCSLPLAFDGSCSGIQHFSAMLRDEVGGRAVNLLPSETVQDIYGIVAKKVNEILQADAINGTDNEVVTVTDENTGEISEKVKLGTKALAGQWLAYGVTRSVTKRSVMTLAYGSKEFGFRQQVLEDTIQPAIDSGKGLMFTQPNQAAGYMAKLIWESVSVTVVAAVEAMNWLKSVAKLLAAEVKDKKTGEILRKRSAVHWVTPDGFPVWQEYKKPIQTRLNLMFLGQFRLQPTINTNKDSEIDAHKQESGIAPNFVHSQDGSHLRKTIVWAHEKYGIESFALIHDSFGTIPADAANLFKAVRETMVDTYESSDVLADFYDQFADQLHESQLDKMPALPAKGNLNLRDILESDFAFA
notes: not shown: N-terminal His-tag
B4: T7 variant #30 [Cys723Ser, Val426Leu, Val795Ile] (enzyme)
chain: MNTINIAKNDFSDIELAAIPFNTLADHYGERLAREQLALEHESYEMGEARFRKMFERQLKAGEVADNAAAKPLITTLLPKMIARINDWFEEVKAKRGKRPTAFQFLQEIKPEAVAYITIKTTLACLTSADNTTVQAVASAIGRAIEDEARFGRIRDLEAKHFKKNVEEQLNKRVGHVYKKAFMQVVEADMLSKGLLGGEAWSSWHKEDSIHVGVRCIEMLIESTGMVSLHRQNAGVVGQDSETIELAPEYAEAIATRAGALAGISPMFQPCVVPPKPWTGITGGGYWANGRRPLALVRTHSKKALMRYEDVYMPEVYKAINIAQNTAWKINKKVLAVANVITKWKHCPVEDIPAIEREELPMKPEDIDMNPEALTAWKRAAAAVYRKDKARKSRRISLEFMLEQANKFANHKAIWFPYNMDWRGRLYAVSMFNPQGNDMTKGLLTLAKGKPIGKEGYYWLKIHGANCAGVDKVPFPERIKFIEENHENIMACAKSPLENTWWAEQDSPFCFLAFCFEYAGVQHHGLSYNCSLPLAFDGSCSGIQHFSAMLRDEVGGRAVNLLPSETVQDIYGIVAKKVNEILQADAINGTDNEVVTVTDENTGEISEKVKLGTKALAGQWLAYGVTRSVTKRSVMTLAYGSKEFGFRQQVLEDTIQPAIDSGKGLMFTQPNQAAGYMAKLIWESVSVTVVAAVEAMNWLKSAAKLLAAEVKDKKTGEILRKRSAVHWVTPDGFPVWQEYKKPIQTRLNLMFLGQFRLQPTINTNKDSEIDAHKQESGIAPNFVHSQDGSHLRKTIVWAHEKYGIESFALIHDSFGTIPADAANLFKAVRETMVDTYESCDVLADFYDQFADQLHESQLDKMPALPAKGNLNLRDILESDFAFA
notes: not shown: N-terminal His-tag
B5: T7 variant #36 [C125S, C347S, C492S, C515S, C723S, C839S, V426L, V650L, A702V, V795I] (enzyme)
chain: MNTINIAKNDFSDIELAAIPFNTLADHYGERLAREQLALEHESYEMGEARFRKMFERQLKAGEVADNAAAKPLITTLLPKMIARINDWFEEVKAKRGKRPTAFQFLQEIKPEAVAYITIKTTLASLTSADNTTVQAVASAIGRAIEDEARFGRIRDLEAKHFKKNVEEQLNKRVGHVYKKAFMQVVEADMLSKGLLGGEAWSSWHKEDSIHVGVRCIEMLIESTGMVSLHRQNAGVVGQDSETIELAPEYAEAIATRAGALAGISPMFQPCVVPPKPWTGITGGGYWANGRRPLALVRTHSKKALMRYEDVYMPEVYKAINIAQNTAWKINKKVLAVANVITKWKHSPVEDIPAIEREELPMKPEDIDMNPEALTAWKRAAAAVYRKDKARKSRRISLEFMLEQANKFANHKAIWFPYNMDWRGRLYAVSMFNPQGNDMTKGLLTLAKGKPIGKEGYYWLKIHGANCAGVDKVPFPERIKFIEENHENIMASAKSPLENTWWAEQDSPFCFLAFSFEYAGVQHHGLSYNCSLPLAFDGSCSGIQHFSAMLRDEVGGRAVNLLPSETVQDIYGIVAKKVNEILQADAINGTDNEVVTVTDENTGEISEKVKLGTKALAGQWLAYGVTRSVTKRSVMTLAYGSKEFGFRQQLLEDTIQPAIDSGKGLMFTQPNQAAGYMAKLIWESVSVTVVAAVEAMNWLKSVAKLLAAEVKDKKTGEILRKRSAVHWVTPDGFPVWQEYKKPIQTRLNLMFLGQFRLQPTINTNKDSEIDAHKQESGIAPNFVHSQDGSHLRKTIVWAHEKYGIESFALIHDSFGTIPADAANLFKAVRETMVDTYESSDVLADFYDQFADQLHESQLDKMPALPAKGNLNLRDILESDFAFA
notes: not shown: N-terminal His-tag
B6: T7 variant #35 [Cys723Ser, Val426Leu, Val650Leu, Ala702Val, Val795Ile] (enzyme)
chain: MNTINIAKNDFSDIELAAIPFNTLADHYGERLAREQLALEHESYEMGEARFRKMFERQLKAGEVADNAAAKPLITTLLPKMIARINDWFEEVKAKRGKRPTAFQFLQEIKPEAVAYITIKTTLACLTSADNTTVQAVASAIGRAIEDEARFGRIRDLEAKHFKKNVEEQLNKRVGHVYKKAFMQVVEADMLSKGLLGGEAWSSWHKEDSIHVGVRCIEMLIESTGMVSLHRQNAGVVGQDSETIELAPEYAEAIATRAGALAGISPMFQPCVVPPKPWTGITGGGYWANGRRPLALVRTHSKKALMRYEDVYMPEVYKAINIAQNTAWKINKKVLAVANVITKWKHCPVEDIPAIEREELPMKPEDIDMNPEALTAWKRAAAAVYRKDKARKSRRISLEFMLEQANKFANHKAIWFPYNMDWRGRLYAVSMFNPQGNDMTKGLLTLAKGKPIGKEGYYWLKIHGANCAGVDKVPFPERIKFIEENHENIMACAKSPLENTWWAEQDSPFCFLAFCFEYAGVQHHGLSYNCSLPLAFDGSCSGIQHFSAMLRDEVGGRAVNLLPSETVQDIYGIVAKKVNEILQADAINGTDNEVVTVTDENTGEISEKVKLGTKALAGQWLAYGVTRSVTKRSVMTLAYGSKEFGFRQQLLEDTIQPAIDSGKGLMFTQPNQAAGYMAKLIWESVSVTVVAAVEAMNWLKSVAKLLAAEVKDKKTGEILRKRSAVHWVTPDGFPVWQEYKKPIQTRLNLMFLGQFRLQPTINTNKDSEIDAHKQESGIAPNFVHSQDGSHLRKTIVWAHEKYGIESFALIHDSFGTIPADAANLFKAVRETMVDTYESCDVLADFYDQFADQLHESQLDKMPALPAKGNLNLRDILESDFAFA
notes: not shown: N-terminal His-tag
B7: T7 variant #28 [Cys723Ser, Val426Leu, Ala702Val] (enzyme)
chain: MNTINIAKNDFSDIELAAIPFNTLADHYGERLAREQLALEHESYEMGEARFRKMFERQLKAGEVADNAAAKPLITTLLPKMIARINDWFEEVKAKRGKRPTAFQFLQEIKPEAVAYITIKTTLACLTSADNTTVQAVASAIGRAIEDEARFGRIRDLEAKHFKKNVEEQLNKRVGHVYKKAFMQVVEADMLSKGLLGGEAWSSWHKEDSIHVGVRCIEMLIESTGMVSLHRQNAGVVGQDSETIELAPEYAEAIATRAGALAGISPMFQPCVVPPKPWTGITGGGYWANGRRPLALVRTHSKKALMRYEDVYMPEVYKAINIAQNTAWKINKKVLAVANVITKWKHCPVEDIPAIEREELPMKPEDIDMNPEALTAWKRAAAAVYRKDKARKSRRISLEFMLEQANKFANHKAIWFPYNMDWRGRLYAVSMFNPQGNDMTKGLLTLAKGKPIGKEGYYWLKIHGANCAGVDKVPFPERIKFIEENHENIMACAKSPLENTWWAEQDSPFCFLAFCFEYAGVQHHGLSYNCSLPLAFDGSCSGIQHFSAMLRDEVGGRAVNLLPSETVQDIYGIVAKKVNEILQADAINGTDNEVVTVTDENTGEISEKVKLGTKALAGQWLAYGVTRSVTKRSVMTLAYGSKEFGFRQQVLEDTIQPAIDSGKGLMFTQPNQAAGYMAKLIWESVSVTVVAAVEAMNWLKSVAKLLAAEVKDKKTGEILRKRSAVHWVTPDGFPVWQEYKKPIQTRLNLMFLGQFRLQPTINTNKDSEIDAHKQESGIAPNFVHSQDGSHLRKTVVWAHEKYGIESFALIHDSFGTIPADAANLFKAVRETMVDTYESCDVLADFYDQFADQLHESQLDKMPALPAKGNLNLRDILESDFAFA
notes: not shown: N-terminal His-tag

The data set deals with the molecule itself. The experiment in a line: non-reducing SDS-PAGE (self-association by disulfide bonds).
With B1, the binding result is reported as “no binding”.
In the case of B2 it was “no binding”; in that of B3, “no binding”; in that of B4, “no binding”.
The result for B5 reads “no binding”; that for B6, “no binding”.
In the case of B7 it was “no binding”.
